Experiments:
[1] = target: bovine cation-independent mannose 6-phosphate receptor domains 1-15 (entire extracellular region) (bovine) (UniProt P08169); experiment: SPR; bovine CI-MPR d1-15 amine coupled to a CM5 chip, tPA injected at various concentrations, 25 °C, response at equilibrium fit with a one site specific binding model
[2] = target: human cation-independent mannose 6-phosphate receptor domains 1-5 (human) (UniProt P11717); experiment: SPR; C-terminally biotinylated human CI-MPR d1-5 on a streptavidin chip; tPA injected at various concentrations, one site specific binding fit; tPA at 120 nM with 5 mM M6P or 5 mM G6P
human cation-independent mannose 6-phosphate receptor domains 1-5 (human), sequence (P11717 36-763): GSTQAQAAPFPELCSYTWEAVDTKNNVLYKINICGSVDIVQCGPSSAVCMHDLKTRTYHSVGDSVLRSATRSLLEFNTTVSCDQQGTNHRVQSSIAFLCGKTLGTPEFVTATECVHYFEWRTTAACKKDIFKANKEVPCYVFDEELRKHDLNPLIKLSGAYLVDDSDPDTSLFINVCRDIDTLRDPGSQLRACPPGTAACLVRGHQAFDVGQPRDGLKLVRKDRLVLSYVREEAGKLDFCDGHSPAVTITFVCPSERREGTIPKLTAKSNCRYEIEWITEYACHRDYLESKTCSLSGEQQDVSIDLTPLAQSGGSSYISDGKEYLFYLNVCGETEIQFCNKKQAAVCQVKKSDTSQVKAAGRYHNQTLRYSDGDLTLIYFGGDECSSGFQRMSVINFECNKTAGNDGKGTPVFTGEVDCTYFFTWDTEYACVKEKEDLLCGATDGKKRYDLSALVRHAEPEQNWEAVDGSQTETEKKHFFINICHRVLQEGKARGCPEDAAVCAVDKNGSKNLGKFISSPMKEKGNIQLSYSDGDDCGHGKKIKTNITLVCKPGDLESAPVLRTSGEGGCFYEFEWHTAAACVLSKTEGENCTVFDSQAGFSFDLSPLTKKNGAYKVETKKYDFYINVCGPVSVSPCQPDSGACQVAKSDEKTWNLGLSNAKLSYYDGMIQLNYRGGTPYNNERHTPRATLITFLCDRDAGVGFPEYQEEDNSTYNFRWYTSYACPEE

[3] = target: human cation-independent mannose 6-phosphate receptor domains 1-15 (entire extracellular region) (human) (UniProt P11717); experiment: SPR; biotinylated human CI-MPR d1-15 on a streptavidin-coupled CM5 chip, tPA injected at various concentrations, 25 °C, 40 µl/min for 2 min, response at equilibrium fit with a one site specific binding model
[4] = target: bovine cation-independent mannose 6-phosphate receptor domains 1-15 (entire extracellular region) (bovine) (UniProt P08169); experiment: SPR; bovine CI-MPR d1-15 amine coupled; mock- or phosphatase-treated proteins injected in 10 mM HEPES, 150 mM sodium acetate, 5 mM β-glycerophosphate, 0.005% polysorbate-20, pH 7.4; tPA at 80 nM with 5 mM M6P, 5 mM G6P or no inhibitor
[5] = target: T1, bovine cation-independent mannose 6-phosphate receptor domains 1-15 (entire extracellular region) (bovine, UniProt P08169 47-2296); experiment: SPR; recombinant tPA, native tPA or β-glucuronidase amine coupled; bovine CI-MPR d1-15 at 20 nM injected after preincubation with M6P, G6P or αMeMan (0.1, 1.0, 5.0 mM); conditions: both partners purified
T1 construct: cation-independent mannose 6-phosphate receptor (CI-MPR), bovine, domains 1-15, amino acids 47-2296; also called bovine CI-MPR d1-15; CI-MPR d1-15; source: Sf9, secreted, purified (Ni-NTA, Sephacryl S-300)
T1 sequence (P08169 47-2296): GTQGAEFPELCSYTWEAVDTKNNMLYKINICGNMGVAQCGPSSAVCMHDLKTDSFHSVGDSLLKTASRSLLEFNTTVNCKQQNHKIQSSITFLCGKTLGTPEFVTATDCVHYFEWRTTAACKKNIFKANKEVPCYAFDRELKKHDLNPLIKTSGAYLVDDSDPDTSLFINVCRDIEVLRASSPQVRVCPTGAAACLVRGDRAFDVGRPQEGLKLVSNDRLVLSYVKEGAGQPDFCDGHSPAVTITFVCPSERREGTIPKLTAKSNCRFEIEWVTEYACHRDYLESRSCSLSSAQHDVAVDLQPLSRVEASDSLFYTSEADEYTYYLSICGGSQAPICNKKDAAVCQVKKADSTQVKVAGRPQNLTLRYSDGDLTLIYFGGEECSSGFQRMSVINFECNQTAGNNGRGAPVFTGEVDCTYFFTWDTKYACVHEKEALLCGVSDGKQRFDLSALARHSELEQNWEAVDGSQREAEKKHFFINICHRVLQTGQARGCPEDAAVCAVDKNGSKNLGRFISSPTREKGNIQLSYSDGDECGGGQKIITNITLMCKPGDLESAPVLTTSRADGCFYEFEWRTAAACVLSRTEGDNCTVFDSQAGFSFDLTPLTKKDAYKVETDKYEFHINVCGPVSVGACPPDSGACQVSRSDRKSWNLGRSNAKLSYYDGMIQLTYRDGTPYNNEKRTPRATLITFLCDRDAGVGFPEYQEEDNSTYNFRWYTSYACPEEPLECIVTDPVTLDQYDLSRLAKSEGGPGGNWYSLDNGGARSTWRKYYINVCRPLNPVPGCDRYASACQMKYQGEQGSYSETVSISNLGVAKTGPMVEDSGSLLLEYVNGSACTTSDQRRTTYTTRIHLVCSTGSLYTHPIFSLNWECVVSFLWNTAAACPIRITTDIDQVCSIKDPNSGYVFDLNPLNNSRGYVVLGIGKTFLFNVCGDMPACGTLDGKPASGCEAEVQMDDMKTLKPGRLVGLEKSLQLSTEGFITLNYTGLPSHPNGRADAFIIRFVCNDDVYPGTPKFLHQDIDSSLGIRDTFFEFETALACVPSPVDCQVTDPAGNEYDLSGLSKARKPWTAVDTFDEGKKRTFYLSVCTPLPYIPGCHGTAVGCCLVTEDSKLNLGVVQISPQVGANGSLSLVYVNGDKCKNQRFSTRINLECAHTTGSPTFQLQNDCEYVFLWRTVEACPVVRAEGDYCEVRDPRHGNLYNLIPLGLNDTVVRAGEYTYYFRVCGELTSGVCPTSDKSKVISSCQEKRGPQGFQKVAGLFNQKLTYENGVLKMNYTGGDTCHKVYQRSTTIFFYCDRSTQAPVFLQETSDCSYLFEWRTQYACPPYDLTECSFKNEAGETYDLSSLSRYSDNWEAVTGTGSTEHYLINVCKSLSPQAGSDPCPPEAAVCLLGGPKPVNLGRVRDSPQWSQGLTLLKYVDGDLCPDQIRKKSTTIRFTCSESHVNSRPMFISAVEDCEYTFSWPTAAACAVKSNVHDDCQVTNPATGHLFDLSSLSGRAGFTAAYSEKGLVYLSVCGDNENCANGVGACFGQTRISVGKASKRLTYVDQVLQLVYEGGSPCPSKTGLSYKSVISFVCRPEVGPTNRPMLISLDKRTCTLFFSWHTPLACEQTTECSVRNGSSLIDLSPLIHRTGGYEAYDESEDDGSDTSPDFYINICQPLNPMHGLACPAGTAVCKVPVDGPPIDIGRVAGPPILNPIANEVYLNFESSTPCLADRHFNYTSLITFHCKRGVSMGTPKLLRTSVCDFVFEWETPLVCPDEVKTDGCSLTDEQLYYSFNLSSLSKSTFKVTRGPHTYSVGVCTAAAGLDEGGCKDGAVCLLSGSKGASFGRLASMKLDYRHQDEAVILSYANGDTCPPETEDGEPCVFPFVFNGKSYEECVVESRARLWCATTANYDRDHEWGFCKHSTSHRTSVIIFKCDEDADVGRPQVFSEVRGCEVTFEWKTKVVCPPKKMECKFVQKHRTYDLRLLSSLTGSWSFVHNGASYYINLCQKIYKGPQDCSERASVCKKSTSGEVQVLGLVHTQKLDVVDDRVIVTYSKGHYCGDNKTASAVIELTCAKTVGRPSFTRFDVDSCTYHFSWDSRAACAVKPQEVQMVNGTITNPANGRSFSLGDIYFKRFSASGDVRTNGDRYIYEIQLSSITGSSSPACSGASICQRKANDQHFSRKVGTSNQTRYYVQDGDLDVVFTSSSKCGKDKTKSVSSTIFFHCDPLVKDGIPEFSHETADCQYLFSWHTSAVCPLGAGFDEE

bovine cation-independent mannose 6-phosphate receptor domains 1-15 (entire extracellular region) (bovine), sequence (P08169 47-2296): as above

Row | Kd [1] | Kd [2] | percent decrease in response at equilibrium with 5 mM G6P [2] | percent decrease in response at equilibrium with 5 mM M6P [2] | Kd [3] | percent decrease in response with 5 mM G6P [4] | percent decrease in response with 5 mM M6P [4] | percent decrease in average response with 5 mM G6P [4] | percent decrease in average response with 5 mM M6P [4] | binding result [5] | Molecule
1 | 214 nM | 155 nM | 21% | 39% | 81 nM | – | – | – | – | – | native tissue plasminogen activator isolated from a human melanoma cell line (enzyme)
2 | – | – | – | – | – | – | – | – | – | binds | human β-glucuronidase (enzyme, UniProt P08236 23-651, looked up, M6P on its N-linked glycans, β-glucuronidase, human, lysosomal enzyme; also called mock-treated β-glucuronidase) LQGGMLYPQESPSRECKELDGLWSFRADFSDNRRRGFEEQWYRRPLWESGPTVDMPVPSSFNDISQDWRLRHFVGWVWYEREVILPERWTQDLRTRVVLRIGSAHSYAIVWVNGVDTLEHEGGYLPFEADISNLVQVGPLPSRLRITIAINNTLTPTTLPPGTIQYLTDTSKYPKGYFVQNTYFDFFNYAGLQRSVLLYTTPTTYIDDITVTTSVEQDSGLVNYQISVKGSNLFKLEVRLLDAENKVVANGTGTQGQLKVPGVSLWWPYLMHERPAYLYSLEVQLTAQTSLGPVSDFYTLPVGIRTVAVTKSQFLINGKPFYFHGVNKHEDADIRGKGFDWPLLVKDFNLLRWLGANAFRTSHYPYAEEVMQMCDRYGIVVIDECPGVGLALPQFFNNVSLHHHMQVMEEVVRRDKNHPAVVMWSVANEPASHLESAGYYLKMVIAHTKSLDPSRPVTFVSNSNYAADKGAPYVDVICLNSYYSWYHDYGHLELIQLQLATQFENWYKKYQKPIIQSEYGAETIAGFHQDPPLMFTEEYQKSLLEQYHLGLDQKRRKYVVGELIWNFADFMTEQSPTRVLGNKKGIFTRQRQPKSAAFLLRERYWKIANETRYPHSVAKSQCLENSLFT

The remaining lines, values behind:

Row | Molecule | Kd [1] | Kd [2] | percent decrease in response at equilibrium with 5 mM G6P [2] | percent decrease in response at equilibrium with 5 mM M6P [2] | Kd [3] | percent decrease in response with 5 mM G6P [4] | percent decrease in response with 5 mM M6P [4] | percent decrease in average response with 5 mM G6P [4] | percent decrease in average response with 5 mM M6P [4] | binding result [5]
3 | phosphatase-treated recombinant tissue plasminogen activator (enzyme) | – | – | – | – | – | 12% | 13% | – | – | –
4 | recombinant human tissue plasminogen activator (Cathflo Activase, alteplase) (enzyme) | 108 nM | 134 nM | 20% | 40% | 23 nM | – | – | 26% | 55% | –
